Reference: the supplement of paper PMC11246515
± gives the standard deviation of the averaged measurements.

Assay: total protein half-life in vivo (active degradation + dilution); higher = more stable protein
[1] = E. coli NCM3722 delta-clpP delta-lon delta-hslV, growth: N-lim chemostat, doubling time 6 h
[2] = wild type E. coli NCM3722, growth: P-lim chemostat, doubling time 6 h
[3] = E. coli NCM3722 delta-clpP, growth: N-lim chemostat, doubling time 6 h
[4] = E. coli NCM3722 delta-hslV, growth: N-lim chemostat, doubling time 6 h
[5] = E. coli NCM3722 delta-lon, growth: N-lim chemostat, doubling time 6 h
[6] = E. coli NCM3722 delta-smpB, growth: N-lim chemostat, doubling time 6 h
[7] = wild type E. coli NCM3722, growth: C-lim chemostat, doubling time 3 h
[8] = wild type E. coli NCM3722, growth: C-lim chemostat, doubling time 6 h
[9] = wild type E. coli NCM3722, growth: N-lim chemostat, doubling time 6 h
[10] = wild type E. coli NCM3722, growth: N-lim chemostat, doubling time 12 h
[11] = wild type E. coli NCM3722, growth: P-lim chemostat, doubling time 12 h
[12] = wild type E. coli NCM3722, growth: C-lim chemostat, doubling time 12 h

Sequence | total protein half-life in vivo [1] | total protein half-life in vivo [2] | total protein half-life in vivo [3] | total protein half-life in vivo [4] | total protein half-life in vivo [5] | total protein half-life in vivo [6] | total protein half-life in vivo [7] | total protein half-life in vivo [8] | total protein half-life in vivo [9] | total protein half-life in vivo [10] | total protein half-life in vivo [11] | total protein half-life in vivo [12]
MSDLHNESIFITGGGSGLGLALVERFIEEGAQVATLELSAAKVASLRQRFGEHILAVEGNVTCYADYQRAVDQILTRSGKLDCFIGNAGIWDHNASLVNTPAETLETGFHELFNVNVLGYLLGAKACAPALIASEGSMIFTLSNAAWYPGGGGPLYTASKHAATGLIRQLAYELAPKVRVNGVGPCGMASDLRGPQALGQSETSIMQSLTPEKIAAILPLQFFPQPADFTGPYVMLTSRRNNRALSGVMINADAGLAIRGIRHVAAGLDL [P0CI31] | 6.21 ± 0.63 h | 3.6 ± 0.55 h | – | – | – | – | – | – | – | – | – | –
MQVLPPSSTGGPSRLFIMRPVATTLLMVAILLAGIIGYRALPVSALPEVDYPTIQVVTLYPGASPDVMTSAVTAPLERQFGQMSGLKQMSSQSSGGASVITLQFQLTLPLDVAEQEVQAAINAATNLLPSDLPNPPVYSKVNPADPPIMTLAVTSTAMPMTQVEDMVETRVAQKISQISGVGLVTLSGGQRPAVRVKLNAQAIAALGLTSETVRTAITGANVNSAKGSLDGPSRAVTLSANDQMQSAEEYRQLIIAYQNGAPIRLGDVATVEQGAENSWLGAWANKEQAIVMNVQRQPGANIISTADSIRQMLPQLTESLPKSVKVTVLSDRTTNIRASVDDTQFELMMAIALVVMIIYLFLRNIPATIIPGVAVPLSLIGTFAVMVFLDFSINNLTLMALTIATGFVVDDAIVVIENISRYIEKGEKPLAAALKGAGEIGFTIISLTFSLIAVLIPLLFMGDIVGRLFREFAITLAVAILISAVVSLTLTPMMCARMLSQESLRKQNRFSRASEKMFDRIIAAYGRGLAKVLNHPWLTLSVALSTLLLSVLLWVFIPKGFFPVQDNGIIQGTLQAPQSSSFANMAQRQRQVADVILQDPAVQSLTSFVGVDGTNPSLNSARLQINLKPLDERDDRVQKVIARLQTAVDKVPGVDLFLQPTQDLTIDTQVSRTQYQFTLQATSLDALSTWVPQLMEKLQQLPQLSDVSSDWQDKGLVAYVNVDRDSASRLGISMADVDNALYNAFGQRLISTIYTQANQYRVVLEHNTENTPGLAALDTIRLTSSDGGVVPLSSIAKIEQRFAPLSINHLDQFPVTTISFNVPDNYSLGDAVQAIMDTEKTLNLPVDITTQFQGSTLAFQSALGSTVWLIVAAVVAMYIVLGILYESFIHPITILSTLPTAGVGALLALLIAGSELDVIAIIGIILLIGIVKKNAIMMIDFALAAEREQGMSPREAIYQACLLRFRPILMTTLAALLGALPLMLSTGVGAELRRPLGIGMVGGLIVSQVLTLFTTPVIYLLFDRLALWTKSRFARHEEEA | 6.53 ± 0.31 h | 7.07 ± 0.49 h | 6.24 ± 0.12 h | 6.58 ± 0.74 h | 6.07 ± 0.56 h | 5.45 ± 0.45 h | 2.98 h | 6.17 ± 0.74 h | 6.15 ± 0.94 h | 13.1 ± 0.4 h | 12.347 ± 0.0014 h | –
MKTVVFAYHDMGCLGIEALLAAGYEISAIFTHTDNPGEKAFYGSVARLAAERGIPVYAPDNVNHPLWVERIAQLSPDVIFSFYYRHLIYDEILQLAPAGAFNLHGSLLPKYRGRAPLNWVLVNGETETGVTLHRMVKRADAGAIVAQLRIAIAPDDIAITLHHKLCHAARQLLEQTLPAIKHGNILEIAQRENEATCFGRRTPDDSFLEWHKPASVLHNMVRAVADPWPGAFSYVGNQKFTVWSSRVHPHASKAQPGSVISVAPLLIACGDGALEIVTGQAGDGITMQGSQLAQTLGLVQGSRLNSQPACTARRRTRVLILGVNGFIGNHLTERLLREDHYEVYGLDIGSDAISRFLNHPHFHFVEGDISIHSEWIEYHVKKCDVVLPLVAIATPIEYTRNPLRVFELDFEENLRIIRYCVKYRKRIIFPSTSEVYGMCSDKYFDEDHSNLIVGPVNKPRWIYSVSKQLLDRVIWAYGEKEGLQFTLFRPFNWMGPRLDNLNAARIGSSRAITQLILNLVEGSPIKLIDGGKQKRCFTDIRDGIEALYRIIENAGNRCDGEIINIGNPENEASIEELGEMLLASFEKHPLRHHFPPFAGFRVVESSSYYGKGYQDVEHRKPSIRNAHRCLDWEPKIDMQETIDETLDFFLRTVDLTDKPS | 5.15 ± 0.03 h | 5.82 ± 0.22 h | 3.11 ± 0.24 h | 2.84 ± 0.19 h | 3.86 ± 0.1 h | 3.13 ± 0.3 h | – | 4.8816 ± 0.00064 h | 2.93 ± 0.43 h | 4.61 ± 0.62 h | 11.65 ± 0.019 h | 10.4 ± 1.2 h
MEISWGRALWRNFLGQSPDWYKLALIIFLIVNPLIFLISPFVAGWLLVAEFIFTLAMALKCYPLLPGGLLAIEAVFIGMTSAEHVREEVAANLEVLLLLMFMVAGIYFMKQLLLFIFTRLLLSIRSKMLLSLSFCVAAAFLSAFLDALTVVAVVISVAVGFYGIYHRVASSRTEDTDLQDDSHIDKHYKVVLEQFRGFLRSLMMHAGVGTALGGVMTMVGEPQNLIIAKAAGWHFGDFFLRMSPVTVPVLICGLLTCLLVEKLRWFGYGETLPEKVREVLQQFDDQSRHQRTRQDKIRLIVQAIIGVWLVTALALHLAEVGLIGLSVIILATSLTGVTDEHAIGKAFTESLPFTALLTVFFSVVAVIIDQQLFSPIIQFVLQASEHAQLSLFYIFNGLLSSISDNVFVGTIYINEAKAAMESGAITLKQYELLAVAINTGTNLPSVATPNGQAAFLFLLTSALAPLIRLSYGRMVWMALPYTLVLTLVGLLCVEFTLAPVTEWFMQMGWIATL [P0AFA7] | – | 6.58 ± 0.48 h | – | 6.59 ± 0.35 h | 6.07 ± 0.93 h | 6.4 ± 0.18 h | – | – | 5.91 ± 0.38 h | 11.2 ± 4.7 h | 12.8 ± 0.14 h | 13.8 ± 0.64 h
MPHHIVIVEDEPVTQARLQSYFTQEGYTVSVTASGAGLREIMQNQSVDLILLDINLPDENGLMLTRALRERSTVGIILVTGRSDRIDRIVGLEMGADDYVTKPLELRELVVRVKNLLWRIDLARQAQPHTQDNCYRFAGYCLNVSRHTLERDGEPIKLTRAEYEMLVAFVTNPGEILSRERLLRMLSARRVENPDLRTVDVLIRRLRHKLSADLLVTQHGEGYFLAADVC | 5.18 ± 0.63 h | 4.28 h | 4.57 ± 0.43 h | – | 4.9 h | 3.92 ± 0.089 h | 2.78 ± 0.039 h | 5.13 ± 0.33 h | 3.89 ± 0.33 h | 5.93 h | 9.93 ± 0.41 h | 9.618 ± 0.075 h
MTRLAEILDQMSAVLNDLKTVMDQEQQHLSMGQINGSQLQWITEQKSSLLATLDYLEQLRRKEPNTANSVDISQRWQEITVKTQQLRQMNQHNGWLLEGQIERNQQALEMLKPHQEPTLYGANGQTSTTHRGGKKISI | – | – | – | – | – | – | 1.15 ± 0.27 h | 4.91 h | – | – | – | 3.28 h
MPRSTWFKALLLLVALWAPLSQAETGWQPIQETIRKSDKDNRQYQAIRLDNGMVVLLVSDPQAVKSLSALVVPVGSLEDPEAYQGLAHYLEHMSLMGSKKYPQADSLAEYLKMHGGSHNASTAPYRTAFYLEVENDALPGAVDRLADAIAEPLLDKKYAERERNAVNAELTMARTRDGMRMAQVSAETINPAHPGSKFSGGNLETLSDKPGNPVQQALKDFHEKYYSANLMKAVIYSNKPLPELAKMAADTFGRVPNKESKKPEITVPVVTDAQKGIIIHYVPALPRKVLRVEFRIDNNSAKFRSKTDELITYLIGNRSPGTLSDWLQKQGLVEGISANSDPIVNGNSGVLAISASLTDKGLANRDQVVAAIFSYLNLLREKGIDKQYFDELANVLDIDFRYPSITRDMDYVEWLADTMIRVPVEHTLDAVNIADRYDAKAVKERLAMMTPQNARIWYISPKEPHNKTAYFVDAPYQVDKISAQTFADWQKKAADIALSLPELNPYIPDDFSLIKSEKKYDHPELIVDESNLRVVYAPSRYFASEPKADVSLILRNPKAMDSARNQVMFALNDYLAGLALDQLSNQASVGGISFSTNANNGLMVNANGYTQRLPQLFQALLEGYFSYTATEDQLEQAKSWYNQMMDSAEKGKAFEQAIMPAQMLSQVPYFSRDERRKILPSITLKEVLAYRDALKSGARPEFMVIGNMTEAQATTLARDVQKQLGADGSEWCRNKDVVVDKKQSVIFEKAGNSTDSALAAVFVPTGYDEYTSSAYSSLLGQIVQPWFYNQLRTEEQLGYAVFAFPMSVGRQWGMGFLLQSNDKQPSFLWERYKAFFPTAEAKLRAMKPDEFAQIQQAVITQMLQAPQTLGEEASKLSKDFDRGNMRFDSRDKIVAQIKLLTPQKLADFFHQAVVEPQGMAILSQISGSQNGKAEYVHPEGWKVWENVSALQQTMPLMSEKNE | 6.72 ± 0.29 h | 5.28 ± 0.059 h | 6.24 ± 0.52 h | 5.96 ± 0.35 h | 6.46 ± 0.14 h | 5.53 ± 0.073 h | 3.05 ± 0.33 h | 5.91 ± 0.59 h | 6.17 ± 0.092 h | 11.7 ± 0.35 h | 11.1 ± 0.72 h | 11.5 ± 0.5 h
MKTIGLLGGMSWESTIPYYRLINEGIKQRLGGLHSAQVLLHSVDFHEIEECQRRGEWDKTGDILAEAALGLQRAGAEGIVLCTNTMHKVADAIESRCTLPFLHIADATGRAITGAGMTRVALLGTRYTMEQDFYRGRLTEQFSINCLIPEADERAKINQIIFEELCLGQFTEASRAYCAQVIARLAEQGAQGVIFGCTEIGLLVPEERSVLPVFDTAAIHAEDAVAFMLS | – | 4.25 ± 0.4 h | 4.02 ± 0.18 h | 4.05 ± 0.27 h | 4.84 ± 0.066 h | 3.69 ± 0.16 h | 2.27 ± 0.064 h | 4.43 ± 0.24 h | 3.96 ± 0.22 h | 6.72 ± 0.36 h | 8.06 ± 0.15 h | 7.096 ± 0.017 h
MEALLQLKGIDKAFPGVKALSGAALNVYPGRVMALVGENGAGKSTMMKVLTGIYTRDAGTLLWLGKETTFTGPKSSQEAGIGIIHQELNLIPQLTIAENIFLGREFVNRFGKIDWKTMYAEADKLLAKLNLRFKSDKLVGDLSIGDQQMVEIAKVLSFESKVIIMDEPTDALTDTETESLFRVIRELKSQGRGIVYISHRMKEIFEICDDVTVFRDGQFIAEREVASLTEDSLIEMMVGRKLEDQYPHLDKAPGDIRLKVDNLCGPGVNDVSFTLRKGEILGVSGLMGAGRTELMKVLYGALPRTSGYVTLDGHEVVTRSPQDGLANGIVYISEDRKRDGLVLGMSVKENMSLTALRYFSRAGGSLKHADEQQAVSDFIRLFNVKTPSMEQAIGLLSGGNQQKVAIARGLMTRPKVLILDEPTRGVDVGAKKEIYQLINQFKADGLSIILVSSEMPEVLGMSDRIIVMHEGHLSGEFTREQATQEVLMAAAVGKLNRVNQE | 6.58 ± 1.1 h | 6.499 ± 0.06 h | 5.992 ± 0.012 h | 6.14 ± 0.13 h | 5.71 ± 0.28 h | 5.878 ± 0.015 h | 3.11 ± 0.17 h | 6.04 ± 0.086 h | 5.96 ± 0.35 h | 12.7 ± 0.54 h | 12.2 ± 0.6 h | 11.3 ± 2.2 h
MTVTTFSELELDESLLEALQDKGFTRPTAIQAAAIPPALDGRDVLGSAPTGTGKTAAYLLPALQHLLDFPRKKSGPPRILILTPTRELAMQVSDHARELAKHTHLDIATITGGVAYMNHAEVFSENQDIVVATTGRLLQYIKEENFDCRAVETLILDEADRMLDMGFAQDIEHIAGETRWRKQTLLFSATLEGDAIQDFAERLLEDPVEVSANPSTRERKKIHQWYYRADDLEHKTALLVHLLKQPEATRSIVFVRKRERVHELANWLREAGINNCYLEGEMVQGKRNEAIKRLTEGRVNVLVATDVAARGIDIPDVSHVFNFDMPRSGDTYLHRIGRTARAGRKGTAISLVEAHDHLLLGKVGRYIEEPIKARVIDELRPKTRAPSEKQTGKPSKKVLAKRAEKKKAKEKEKPRVKKRHRDTKNIGKRRKPSGTGVPPQTTEE | 5.75 ± 0.085 h | 4.18 ± 0.28 h | 5.51 ± 0.25 h | 4.72 ± 0.45 h | 5.13 ± 0.37 h | 4.237 ± 0.022 h | 3.01 ± 0.26 h | 5.47 ± 0.41 h | 4.2 ± 0.049 h | 7.37 ± 0.27 h | 7.44 ± 0.14 h | 9.33 ± 0.45 h
